Test results from paper PMC3937308, “The Post-transcriptional Regulator rsmA/csrA Activates T3SS by Stabilizing the 5′ UTR of hrpG, the Master Regulator of hrp/hrc Genes, in Xanthomonas”.

Key:
6HisRsmA (RsmAxcc) [1] = target: T1, 6HisRsmA (RsmAxcc) (Xanthomonas citri subsp. citri strain …, UniProt Q8PLP9 1-70); test: EMSA; apparent Kd; 6.25 nM RNA; 10 mM HEPES pH 7.3, 20 mM KCl, 1 mM MgCl2, 1 mM DTT, 5% glycerol, 0.1 µg/µL yeast tRNA, 20 U RNasin, 25 °C 20 min; 5% native PAGE; details: protein: recombinant; tags: N-terminal 6xHis (pET-28a, NdeI site); chain copies: 2; label: 3' biotin
T1 sequence (Q8PLP9 whole entry): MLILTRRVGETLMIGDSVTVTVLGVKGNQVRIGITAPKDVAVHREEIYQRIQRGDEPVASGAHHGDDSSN

6HisRsmA (RsmAxcc) [2] = target: T1, 6HisRsmA (RsmAxcc); test: EMSA; 10 mM HEPES pH 7.3, 20 mM KCl, 1 mM MgCl2, 1 mM DTT, 5% glycerol, 0.1 µg/µL yeast tRNA, 20 U RNasin, 25 °C 20 min; 5% native PAGE; details: protein: recombinant; tags: N-terminal 6xHis (pET-28a, NdeI site); chain copies: 2; label: 3' biotin
6HisRsmA (RsmAxcc) [3] = target: T1, 6HisRsmA (RsmAxcc); test: EMSA; 65 nM protein, 6.25 nM RNA; 10 mM HEPES pH 7.3, 20 mM KCl, 1 mM MgCl2, 1 mM DTT, 5% glycerol, 0.1 µg/µL yeast tRNA, 20 U RNasin, 25 °C 20 min; 5% native PAGE; details: protein: recombinant; tags: N-terminal 6xHis (pET-28a, NdeI site); chain copies: 2

| Binder | binding result (6HisRsmA (RsmAxcc) [2]) | also measured |
| --- | --- | --- |
| ACGAUGCAGCGAUCUUUGAAGAUGGAUUUUGUCCUGGCAUUG (ssRNA) [hrpG2] |  | Kd (6HisRsmA (RsmAxcc) [1]): 180 ± 200 nM |
| GCGCAGCGAUCGCGGAAGGAGAGGGCAAUG (ssRNA) [hrpC] | no binding |  |
| GUGUACGGUCCGCAUGUCAUUAAAACGAGGUGCAGUGUG (ssRNA) [hrpB] | no binding |  |
| GCCCAUCGCGCAGAUUGGCAACAUACGGCUACACCGCAUG (ssRNA) [hrpF] | no binding |  |
| GUUAGGCGCCUGUUGUCUUUUGCUCCGCCCCCCAAAGAGAGAGAC (ssRNA) [hrpX] | no binding |  |
| AUUCGUCCAGCUCCGCUGGACUCUC (ssRNA) [hrpG1] | no binding |  |
| GGGAAUUCAACUCCAUCUAGGCACAAGGAUGUGCCAUAGUACUCAAGCU (structured_RNA) [R9-43] |  | binding result (6HisRsmA (RsmAxcc) [3]): binds |
